Values of other authors in PMC4754043 (Human Molecular Genetics, 2015).

Tested on: human transmitochondrial cybrid cells and yeast with mt-tRNA mutations
Details: human cybrids and yeast; ref [9],[10],[11]

B1: mt-ValRS: mt-valyl-tRNA synthetase (protein, UniProt Q5ST30 27-1063, looked up)
Valine--tRNA ligase, …: SVSTQSEPHGSPISRRNREAKQKRLREKQATLEAEIAGESKSPAESIKAWRPKELVLYEIPTKPGEKKDVSGPLPPAYSPRYVEAAWYPWWVREGFFKPEYQARLPQATGETFSMCIPPPNVTGSLHIGHALTVAIQDALVRWHRMRGDQVLWVPGSDHAGIATQAVVEKQLWKERGVRRHELSREAFLREVWQWKEAKGGEICEQLRALGASLDWDRECFTMDVGSSVAVTEAFVRLYKAGLLYRNHQLVNWSCALRSAISDIEVENRPLPGHTQLRLPGCPTPVSFGLLFSVAFPVDGEPDAEVVVGTTRPETLPGDVAVAVHPDDSRYTHLHGRQLRHPLMGQPLPLITDYAVQPHVGTGAVKVTPAHSPADAEMGARHGLSPLNVIAEDGTMTSLCGDWLQGLHRFVAREKIMSVLSEWGLFRGLQNHPMVLPICSRSGDVIEYLLKNQWFVRCQEMGARAAKAVESGALELSPSFHQKNWQHWFSHIGDWCVSRQLWWGHQIPAYLVVEDHAQGEEDCWVVGRSEAEAREVAAELTGRPGAELTLERDPDVLDTWFSSALFPFSALGWPQETPDLARFYPLSLLETGSDLLLFWVGRMVMLGTQLTGQLPFSKVLLHPMVRDRQGRKMSKSLGNVLDPRDIISGVEMQVLQEKLRSGNLDPAELAIVAAAQKKDFPHGIPECGTDALRFTLCSHGVQAGDLHLSVSEVQSCRHFCNKIWNALRFILNALGEKFVPQPAEELSPSSPMDAWILSRLALAAQECERGFLTRELSLVTHALHHFWLHNLCDVYLEAVKPVLWHSPRPLGPPQVLFSCADLGLRLLAPLMPFLAEELWQRLPPRPGCPPAPSISVAPYPSACSLEHWRQPELERRFSRVQEVVQVLRALRATYQLTKARPRVLLQSSEPGDQGLFEAFLEPLGTLGYCGAVGLLPPGAAAPSGWAQAPLSDTAQVYMELQGLVDPQIQLPLLAARRYKLQKQLDSLTARTPSEGEAGTQRQQKLSSLQLELSKLDKAASHLRQLMDEPPAPGSPEL
rescue of defects due to mutations in non-cognate as well as cognate mt-tRNAs: able to rescue
